Results from patent publication US20050260219A1, “Carboxypeptidases B from anopheles gambiae. compositions comprising them, vaccine applications and use as therapeutical targets” (INSTITUT PASTEUR, priority 2004, published 2005).
Where “and” joins values, the source holds several entries; their conditions need not be identical. Equal entries are not always repeated. Marks after values point to notes of the source that are not given here.

Legend:
[1] = substrate: N=C(N)NCCC[C@H](NC(=O)CNC(=O)c1ccccc1)C(=O)O; assay: Carboxypeptidase activity assay on recombinant CPBAg1 with di-peptide substrates; format: biochemical, Anopheles gambiae; conditions: other: hydrolysis of Hip-Arg, Michaelis-Menten, 0.02-10 mM substrate; pH 7.2; 25.0 °C
Experimental: Carboxypeptidase activity was determined using the synthetic di-peptide substrates Hippuryl-Arginine (Hip-Arg), Hippuryl-Lysine (Hip-Lys) as carboxypeptidase B substrates and Hippuryl-Phenylalanine (Hip-Phe) as carboxypeptidase A substrate. All reagents were purchased from Sigma. Activities were assayed in 20 μl E buffer (100 mM NaCl/50 mM Hepes/100 μM ZnCl2 pH 7.2) containing 1 mM Hip-Arg, Hip-Lys or Hip-Phe. The reaction was initiated by adding an equal volume of His-tagged CPBAg1 (5 ng/μl in E buffer), incubated at 25° C. for 10-40 min, and stopped by the addition of 20 μl Ninhydrin reagent (Sigma, Lyon, France). The rate of the reaction was measured by estimating the amount of released amino acids using the ninhydrin procedure (60). One unit of enzyme activity was defined as μmol of amino acids released/min.
Estimation of Km and kcat was carried out after assays over a 500-fold range of Hip-Arg concentration (0.02-10 mM). Each concentration was assayed in triplicate. The kinetic parameters were derived from iterative non-linear least square fits of the Michaelis-Menten equation using the experimental data (61). Confidence limits for the fitted values were determined by 100 Monte Carlo iterations using the experimental standard deviations on individual measurements. […]

[2] = test system: CPBAg1; assay: CPBAg1 specific ELISA titers in sera from immunized mice; format: in vivo; conditions: Swiss mice
Experimental: Specific antibody titers against CPBAg1 were measured in duplicates for each mice by ELISA three weeks after the first (group 1) and the booster (group 2) immunization. The average reading at O.D. 490 nm of each group was plotted against the reciprocal sera dilution. End points were defined as the highest serial dilutions yielding an absorbance reading at 490 nm greater than 0.5. (Δ) and (□) show antibody titers from group 1 and 2 respectively in sera from immunized mice. (▴) and (▪) show antibody titers from group 1 and 2 respectively in sera from control mice.
Immunizations were performed with a recombinant CPBAg1 protein expressed in insect cells using the baculovirus expression system. Eleven 3- to 4-week-old female Swiss outbred mice (CERJ, Le Genest St-Isle, France) were injected subcutaneously with 20 μg of recombinant CPBAg1 in sterile PBS, emulsified with complete Freund's adjuvant (Sigma). […]
Microtiter plates (Immuno-plate Maxisorp, Nunc) were coated with 50 ng/well of CPBAg1 in PBS, overnight at 4° C., and saturated with 100 μl/well 0.5% gelatine (Sigma) in PBS for 1 h. […] After 10 min. incubation, the reaction was stopped with 50 μl 3N HCl and absorbance was measured at 490 nm using a microplate reader (Molecular Devices). Serum dilutions at an absorbance value of 0.5 were designated as the endpoint of ELISA titers.

[3] = test system: P. berghei; assay: Transmission-blocking assays: An. gambiae fed on CPBAg1 immunized, P. berghei infected mice; format: in vivo, Plasmodium berghei; conditions: for Mean no. of oocysts (range): per positive midgut, day 9-11; for % of reduction R: infected mosquitoes fed on immunized versus control mice
Experimental: Immunizations were performed with a recombinant CPBAg1 protein expressed in insect cells using the baculovirus expression system. Eleven 3- to 4-week-old female Swiss outbred mice (CERJ, Le Genest St-Isle, France) were injected subcutaneously with 20 μg of recombinant CPBAg1 in sterile PBS, emulsified with complete Freund's adjuvant (Sigma). Eleven control mice were injected simultaneously with sterile PBS/adjuvant following the same protocol. On day 21 post-immunization, eight immunized mice and eight control mice (group 1) were challenged with P. berghei for transmission blocking assays (see below). The three other immunized mice were boosted with 10 μg of recombinant CPBAg1 formulated in incomplete Freund's adjuvant (Sigma) and the three other control mice were injected simultaneously with sterile PBS/incomplete adjuvant. These six mice, which constituted group 2, were challenged with P. berghei 21 days after the booster immunization. Sera from immunized and control mice of both groups were prepared from 100 μl blood samples collected the same day as mosquito feeding (24 days after the first and booster immunizations).
On day 21 after the first and booster immunizations, mice were peritoneally inoculated with the P. berghei ANKA strain 2.34. On day 3 after P. berghei inoculation, parasitemia and gametocytemia were determined using Giemsa stained thin blood smears, and the mice were used for mosquito feeding. In group 1, parasitemia and gametocytemia ranged from 3.2% to 6.2% and from 6,500 to 11,500 gametocytes/μl for control mice, whereas they ranged from 3% to 7.4% and from 7,500 to 13,500 gametocytes/μl for immunized mice. In group 2, they ranged from 2% to 2.9% and from 2,000 to 4,000 gametocytes/μl for control mice, whereas they ranged from 1.5% to 3.6% and from 1,000 to 2,000 gametocytes/μl for immunized mice. Each mouse was placed onto a netted cage containing 50 starved 5-day-old An. gambiae females and feeding was carried out for 15 minutes at 21° C. After mosquito feeding, mice were bled to collect sera for ELISAs experiments and fully engorged mosquito females were maintained at 21° C., 80% humidity, until dissections. Rate of infection (number of infected mosquitoes/number of dissected mosquitoes) and intensity of infection (mean number of oocysts per positive midgut) were scored on day 9-11 after blood feeding by detection of oocysts on the mosquito midgut wall.
For the data reported in Table 7 below, An. gambiae were fed on control or immunized mice from group 1 (after primary immunization) and group 2 (after booster immunization). Proportion of infected mosquitoes (rate of infection) and mean number of oocysts per positive midgut (intensity of infection) were determined on day 9-11 post feeding. R: % reduction was calculated as R %=100×[1−(% infected mosquitoes fed on immunized mice/% infected mosquitoes fed on control mice)], using the mean value from each experimental group.

[4] = test system: P. berghei PbGFPCON ANKA strain; assay: Effect of CPBAg1 immunized mice sera on parasite development (GFP-expressing P. berghei); format: in vivo, Plasmodium berghei
Experimental: Intensity of infection (number of parasites per positive midgut) by P. berghei was scored by detection of GFP-expressing parasites in midguts of mosquitoes fed on control (black bars) and immunized mice (grey bars). Gametocytemia was determined just before feeding by Giemsa staining of thin smears and by GFP fluorescence detection. Mosquitoes were dissected at 3 h, 24 h, 48 h and 9 days after blood feeding to visualize zygotes (Zyg), ookinetes (Ook), young oocysts (Ooc 48 h) and mature oocysts (Ooc day 9), respectively. Geometric mean intensity for six immunized mice was plotted as % of that for six control mice set at 100%. The table indicates the geometric mean number of parasite per midgut at each parasite life stages.
To assess the effect of anti-CPBAg1 sera on parasite development, a new group of six mice was immunized as described above and six control mice were injected with PBS/adjuvant. […] On day 3 after P. berghei inoculation, gametocytemia were determined by Giemsa staining of thin blood smears and by GFP fluorescence detection. […] Intensity of infection was scored by counting the number of zygotes and ookinetes within the mosquito midgut content, and the number of oocysts on the midgut wall. GFP fluorescence was visualized using GFP filter settings with a Zeiss Axiovert 25 fluorescence microscope.

B1: recombinant CPBAg1 (Anopheles gambiae) (protein)
chain: GSYHEFELYNVRPETAEQLSVLLKWRNGQEIEVDFWDAPKVGRSARLMVTREDHKRVEEFLEQHDIEYDLVAEDVQELLNREQRRNVEHGRRLRRDSNSRATVNFEHFWTLDEIYEYLDELAVAYNGLVRVSEIGRTHEDRPIKAITISTRGAVDQTRPIVFMDGGIHAREWAGVMSVMYMIHEFVEHSDQYAEQLSNTDYVIVPVANPDGYVYTHEQNRLWRKNRSPGNVLCYGVDLNRNFPFQWDRTTSECTNNFAGHAASSENETKALIGLMDQYKAAIRMYLAVHTYGEMILWPWGYDFLHAPNEDDLQRLGERARDALVAAGGPEYEVGNSADILYTASGATDDYAYSLGVPYSYTLELTGGGSQGFDLPAAELARVTSQTFELLKVFGQHAGTLSVTS
[1]
  Km: 2590 µM

B2: CPBAg1: recombinant His-tagged An. gambiae carboxypeptidase B (SEQ ID NO: 2) from baculovirus/insect cells, used to immunize mice (protein, listed as Anopheles gambiae)
chain: MKRLTFVTGCLLALAFAKAGSYHEFELYNVRPETAEQLSVLLKWRNGQEIEVDFWDAPKVGRSARLMVTREDHKRVEEFLEQHDIEYDLVAEDVQELLNREQRRNVEHGRRLRRDSNSRATVNFEHFWTLDEIYEYLDELAVAYNGLVRVSEIGRTHEDRPIKAITISTRGAVDQTRPIVFMDGGIHAREWAGVMSVMYMIHEFVEHSDQYAEQLSNTDYVIVPVANPDGYVYTHEQNRLWRKNRSPGNVLCYGVDLNRNFPFQWDRTTSECTNNFAGHAASSENETKALIGLMDQYKAAIRMYLAVHTYGEMILWPWGYDFLHAPNEDDLQRLGERARDALVAAGGPEYEVGNSADILYTASGATDDYAYSLGVPYSYTLELTGGGSQGFDLPAAELARVTSQTFELLKVFGQHAGTLSVTS
modifications: His tag
[2]; group 1: single injection of 20 μg in complete Freund's adjuvant, 24 days after immunization
  endpoint titer of specific anti-CPBAg1 antibodies: ~12,150
[2]; group 2: second injection on day 21
  endpoint titer of specific anti-CPBAg1 antibodies: ~36,450
[3]; Group 1 (primary immunization), individual immunized mice Im 1-Im 8, day 9-11 post feeding
  Rate of infection % (number of dissected mosquitoes): 9.4 (32)* % and 0 (20)* % and 43.3 (30)* % and 31.2 (32)* % and 41.2 (17)* % and 38.8 (18)* % and 50 (30)* % and 10.5 (38)* %
[3]; Group 1, individual immunized mice Im 1-Im 8
  Mean no. of oocysts (range): 2.5 (1-5)* and 0* and 7.16 (1-56) and 3.7 (1-70) and 5.4 (1-27) and 5.8 (1-32) and 6.7 (1-117) and 3.3 (1-15)
[3]; Group 1
  % of reduction R: 63% and 63.2%
[3]; Group 2 (booster immunization), individual immunized mice Im 9-Im 11, day 9-11 post feeding
  Rate of infection % (number of dissected mosquitoes): 77.4 (31)* % and 26.6 (30)* % and 36.6 (30)* %
[3]; Group 2, individual immunized mice Im 9-Im 11
  Mean no. of oocysts (range): 23.7 (1-120) and 6.2 (3-10)* and 24.3 (6-100)
[3]; Group 2
  % of reduction R: 51% and 50.6%
[3]; Mean Group 1, immunized mice
  Mean no. of oocysts: 5.3
  Rate of infection % (number of dissected mosquitoes): 28.1 (217)* %
[3]; Mean Group 2, immunized mice
  Mean no. of oocysts: 18.6*
  Rate of infection % (number of dissected mosquitoes): 47.2 (91)* %
[4]; 3 h PBM (zygotes)
  reduction of mean infection intensity versus mosquitoes fed on control mice: 40%
[4]; day 9 PBM (mature oocysts)
  reduction of mean infection intensity versus mosquitoes fed on control mice: 65%
